The chains are these.
B1: DQN0344H0976/L0591//DQN0385H1270/L0681-F6 (bispecific antibody)
heavy 1: QVQLVESGGGVVQPGGSLRLSCAASGFTFSSAYWMVWVRQAPGQGLEWMGAVYGGSDTTYYAKWTEGRFTISRDTSKNTLYLQMNSLRAEDTAVYYCAREPLNYYYYGELNLWGQGTLVTVSSASTKGPSVFPLAPSSKSTSGGTAALGCLVKDYFPEPVTVSWNSGALTSGVHTFPAVLKSSGLYSLSSVVTVPSSSLGTQTYICNVNHKPSNTKVDKRVEPKSCDKTHTCPPCPAPELRRGPSVFLFPPKPKDTLMISRTPEVTCVVVDVSHEDPEVKFNWYVDGVEVHNAKTKPREEQYNSTYRVVSVLTVLHQDWLNGKEYKCKVSNKALPAPIEKTISKAKGQPREPQVYTLPPSREEMTKNQVSLTCLVKGFYPSDIAVEWESNGQPENNYKTTPPYLDSDGSFFLYSKLTVDKSRWQEGNVFSCSVLHEALHAHYTREELSLSP
light 1: DIQMTQSPSSLSASVGDRVTITCQATEEIYSGLAWYQQKPGKAPKLLIYYVSTLYEGIPARFSGSGSGTDFTLTISSLEPEDFAVYYCQTYEDVSAVTFGQGTKVEIKRTVAAPSVFIFPPSDEQLKSGTAEVVCLLNNFYPREAKVQWKVDNALQSGNSEESVTEQDSKDSTYSLSSTLTLSKADYEKHKVYACEVTHQGLSSPVTKSFNRGEC
heavy 2: QVQLVESGGGVVQPGRSLRLSCAASGFTFSEWYFMSWVRQAPGKGLEWVASIDTGSGSIDYAEWVEGRFTISRDNSKNTLYLQMNSLRAEDTAVYYCARDIGIDYNFWGPGTLVTVSSASTKGPSVFPLAPSSKSTSGGTAALGCLVEDYFPEPVTVSWNSGALTSGVHTFPAVLESSGLYSLSSVVTVPSSSLGTKTYICNVNHKPSNTKVDKRVEPKSCDKTHTCPPCPAPELRRGPSVFLFPPKPKDTLMISRTPEVTCVVVDVSHEDPEVKFNWYVDGVEVHNAKTKPREEQYNSTYRVVSVLTVLHQDWLNGKEYKCKVSNKALPAPIEKTISKAKGQPREPQVYTLPPSRKEMTKNQVSLTCLVKGFYPSDIAVEWESNGQPENNYKTTPPYLDSDGSFFLYSKLTVDKSRWQQGNVFSCSVLHEALHAHYTRKELSLSP
light 2: DIQMTQSPSSLSASVGDRVTITCQTTQSISSYLNWYQQKPGQPPKLLIYYASTKAEGIPARFSGSGLGTDFTLTISSLEPEDFAVYYCHYGISKVSFGQGTKVEIKRTVAAPSVFIFPPSDEQLKSGTAKVVCLLNNFYPREAKVQWKVDNALQSGNSKESVTEQDSKDSTYSLSSTLTLSKADYEKHKVYACEVTHQGLSSPVTKSFNRGEC
B2: DQN0344H0976/L0591//DQN0385H1255/L0605-F6 (bispecific antibody)
heavy 1: B1 heavy 1
light 1: B1 light 1
heavy 2: B1 heavy 2 with E63G, G67E
light 2: B1 light 2 with L67S
B3: DQN0344H1013/L0620//DQN0385H1270/L0681-F6 (bispecific antibody)
heavy 1: B1 heavy 1 with G16R, L112V
light 1: B1 light 1 with E28N, Y55A, E56Y
heavy 2: B1 heavy 2
light 2: B1 light 2
B4: DQN0344H0976/L0591//DQN0385H1352/L0681-F6 (bispecific antibody)
heavy 1: B1 heavy 1
light 1: B1 light 1
heavy 2: B1 heavy 2 with T28E
light 2: B1 light 2
B5: DQN0344H0976/L0591//DQN0385H1527/L0605-F6 (bispecific antibody)
heavy 1: B1 heavy 1
light 1: B1 light 1
heavy 2: B1 heavy 2 with S30A, E31S
light 2: B1 light 2 with L67S
B6: DQN0344H0976/L0591//DQN0385H1270/L0722-F6 (bispecific antibody)
heavy 1: B1 heavy 1
light 1: B1 light 1
heavy 2: B1 heavy 2
light 2: B1 light 2 with E79Q
B7: DQN0344H0976/L0591//DQN0385H1255/L0605-F6.v2 (bispecific antibody, V domains shown)
VH 1: QVQLVESGGGVVQPGGSLRLSCAASGFTFSSAYWMVWVRQAPGQGLEWMGAVYGGSDTTYYAKWTEGRFTISRDTSKNTLYLQMNSLRAEDTAVYYCAREPLNYYYYGELNLWGQGTLVTVSS
VL 1: DIQMTQSPSSLSASVGDRVTITCQATEEIYSGLAWYQQKPGKAPKLLIYYVSTLYEGIPARFSGSGSGTDFTLTISSLEPEDFAVYYCQTYEDVSAVTFGQGTKVEIK
VH 2: QVQLVESGGGVVQPGRSLRLSCAASGFTFSEWYFMSWVRQAPGKGLEWVASIDTGSGSIDYAGWVEERFTISRDNSKNTLYLQMNSLRAEDTAVYYCARDIGIDYNFWGPGTLVTVSS
VL 2: DIQMTQSPSSLSASVGDRVTITCQTTQSISSYLNWYQQKPGQPPKLLIYYASTKAEGIPARFSGSGSGTDFTLTISSLEPEDFAVYYCHYGISKVSFGQGTKVEIK

Substitutions are numbered along the chain they refer to.

In one assay the target is T1, HLA-DQ2.5 on IHW09023 cells loaded with 33 mer gliadin peptide (human; wheat). The experiment in a line: cell-based or functional assay.
Turning to B1, the “IC50, α1b gliadin TCR, 250 nM 33mer gliadin” value (shortened to “IC50, α1b gliadin TCR”) came to 1.36 ng/mL and the “IC50, α2 gliadin TCR, 250 nM 33mer gliadin” value (“IC50, α2 gliadin TCR” below) came to 0.34 ng/mL.
Turning to B2, the “IC50, α1a gliadin TCR, 250 nM 33mer gliadin” value (“IC50, α1a gliadin TCR” for short) amounted to 0.49 ng/mL; the “IC50, α1b gliadin TCR” value amounted to 2.66 ng/mL; the “IC50, α2 gliadin TCR” value turned out to be 0.56 ng/mL.
In the same order, the values of B3 are 0.38 ng/mL, 1.78 ng/mL and 0.33 ng/mL.
In the same order, the values of B4 are 0.29 ng/mL, 1.37 ng/mL and 0.31 ng/mL.
For B5 the same measures were 0.7 ng/mL, 1.84 ng/mL and 0.51 ng/mL.
Regarding B6, the “IC50, α1a gliadin TCR” value came to 0.38 ng/mL; the “IC50, α1b gliadin TCR” value is 1.41 ng/mL; the “IC50, α2 gliadin TCR” value stood at 0.31 ng/mL.

The target in another assay is T2, HLA-DQ2.5 on IHW09023 cells loaded with omega1/2 gliadin peptide (human; wheat). Briefly: cell-based or functional assay.
As for B1, the “IC50, ω1 gliadin TCR, 25 µM ω1/2 gliadin” value amounted to 2.07 ng/mL and the “IC50, ω2 gliadin TCR, 250 nM ω1/2 gliadin” value (from here on “IC50, ω2 gliadin TCR”) stood at 0.26 ng/mL.
B2: the “IC50, ω1 gliadin TCR, 25 µM ω1/2 gliadin” value amounted to 2.62 ng/mL and the “IC50, ω2 gliadin TCR” value was found to be 0.25 ng/mL.
For B3 the same measures were 2.51 ng/mL and 0.2 ng/mL.
For B4 the same measures were 1.48 ng/mL and 0.24 ng/mL.
As to B5, the “IC50, ω1 gliadin TCR, 25 µM ω1/2 gliadin” value came to 3.25 ng/mL and the “IC50, ω2 gliadin TCR” value was found to be 0.3 ng/mL.
Consider B6, for which the “IC50, ω1 gliadin TCR, 25 µM ω1/2 gliadin” value was determined as 2.55 ng/mL and the “IC50, ω2 gliadin TCR” value was found to be 0.26 ng/mL.

The next assay has as its target T3, HLA-DQ2.5 on IHW09023 cells loaded with BC hordein peptide (human; barley). The experiment in a line: cell-based or functional assay.
In the case of B1, the “IC50, BC hordein TCR, 250 nM BC hordein” value turned out to be 12 ng/mL.
Still for that read-out and setting: in the case of B2 it was 13.6 ng/mL; in that of B3, 7.54 ng/mL.
Still for that read-out and setting: in the case of B4 it was 10.8 ng/mL; in that of B5, 6.54 ng/mL.
Same read-out and setting: the figure for B6 is 13.2 ng/mL.

A further assay has as its target T4, HLA-DQ2.5 on IHW09023 cells loaded with gamma 1 gliadin peptide (human; wheat). Briefly: cell-based or functional assay.
Consider B1, for which the “IC50, γ1 gliadin TCR, 250 nM γ1 gliadin” value is 1.05 ng/mL.
Take B2: the “IC50, γ1 gliadin TCR, 250 nM γ1 gliadin” value came out at 0.91 ng/mL.
On the same count and under the same terms, in the case of B3 it was 1.11 ng/mL; in that of B4, 1.11 ng/mL.
On to B5, for which the “IC50, γ1 gliadin TCR, 250 nM γ1 gliadin” value was determined as 0.59 ng/mL.
The same measure, in the same setting: the figure for B6 is 0.66 ng/mL.

The target of another assay is T5, HLA-DQ2.5 on IHW09023 cells loaded with gamma 2 gliadin peptide (human; wheat). The experiment in a line: cell-based or functional assay.
As to B1, the “IC50, γ2 gliadin TCR, 250 nM γ2 gliadin” value turned out to be 182 ng/mL.
Take B2: the “IC50, γ2 gliadin TCR, 250 nM γ2 gliadin” value came to 440 ng/mL.
Consider B3, for which the “IC50, γ2 gliadin TCR, 250 nM γ2 gliadin” value was determined as 322 ng/mL.
With B4, the “IC50, γ2 gliadin TCR, 250 nM γ2 gliadin” value is 284 ng/mL.
The same measure, in the same setting: the figure for B5 is 637 ng/mL.
The same measure, in the same setting: in the case of B6 it was 281 ng/mL.

Another assay addresses T6, HLA-DQ2.5 on IHW09023 cells loaded with gamma 3 gliadin peptide (human; wheat). The experiment in a line: cell-based or functional assay.
As to B1, the “IC50, γ3 gliadin TCR, 100 µM γ3 gliadin” value worked out at 2.4 ng/mL.
On to B2, for which the “IC50, γ3 gliadin TCR, 100 µM γ3 gliadin” value worked out at 2.31 ng/mL.
On to B3, for which the “IC50, γ3 gliadin TCR, 100 µM γ3 gliadin” value is 2.63 ng/mL.
B4: the “IC50, γ3 gliadin TCR, 100 µM γ3 gliadin” value is 2.99 ng/mL.
Still for that read-out and setting: in the case of B5 it was 2.09 ng/mL.
On to B6, for which the “IC50, γ3 gliadin TCR, 100 µM γ3 gliadin” value turned out to be 2.88 ng/mL.

The next assay addresses T7, HLA-DQ2.5 on IHW09023 cells loaded with gamma 4a gliadin peptide (human; wheat). The experiment in a line: cell-based or functional assay.
On to B1, for which the “IC50, γ4a gliadin TCR, 25 µM γ4a gliadin” value was determined as 749 ng/mL.
Still for that read-out and setting: the figure for B2 is 1430 ng/mL.
On the same count and under the same terms, in the case of B3 it was 1160 ng/mL.
B4: the “IC50, γ4a gliadin TCR, 25 µM γ4a gliadin” value was found to be 802 ng/mL.
The same measure, in the same setting: in the case of B5 it was 1210 ng/mL; in that of B6, 726 ng/mL.

Another assay concerns the target T8, HLA-DQ2.5 on IHW09023 cells loaded with gamma 4d gliadin peptide (human; wheat). The experiment in a line: cell-based or functional assay.
In the case of B1, the “IC50, γ4d gliadin TCR, 100 µM γ4d gliadin” value (shortened to “IC50, γ4d gliadin TCR”) was 11.8 ng/mL.
Same read-out and setting: the figure for B2 is 12.4 ng/mL; for B3 it is 13.1 ng/mL.
On the same count and under the same terms, the figure for B4 is 9.82 ng/mL; for B5 it is 11.4 ng/mL.
For B6, the “IC50, γ4d gliadin TCR” value was determined as 16.3 ng/mL.

The next assay has as its target T1, HLA-DQ2.5 on IHW09023 cells loaded with …. The experiment in a line: cell-based or functional assay. This is another data set of the same source.
B7: the “IC50, α1a gliadin TCR” value came to 0.46 ng/mL; the “IC50, α1b gliadin TCR” value turned out to be 1.33 ng/mL; the “IC50, α2 gliadin TCR” value stood at 0.29 ng/mL.

In another assay the target is T2, HLA-DQ2.5 on IHW09023 cells loaded with …. Briefly: cell-based or functional assay. The source holds these as a separate data set.
For the molecule B7, the “IC50, ω1 gliadin TCR, 25 µM ω1/2 gliadin” value is 1.62 ng/mL and the “IC50, ω2 gliadin TCR” value came to 0.18 ng/mL.

A further assay addresses T3, HLA-DQ2.5 on IHW09023 cells loaded with …. Briefly: cell-based or functional assay. This is another data set of the same source.
On to B7, for which the “IC50, BC hordein TCR, 250 nM BC hordein” value amounted to 9.52 ng/mL.

The target of the next assay is T4, HLA-DQ2.5 on IHW09023 cells loaded with …. Briefly: cell-based or functional assay. This is another data set of the same source.
Consider B7, for which the “IC50, γ1 gliadin TCR, 250 nM γ1 gliadin” value turned out to be 1.62 ng/mL.

The target of a further assay is T5, HLA-DQ2.5 on IHW09023 cells loaded with …. The experiment in a line: cell-based or functional assay. This is another data set of the same source.
On to B7, for which the “IC50, γ2 gliadin TCR, 250 nM γ2 gliadin” value turned out to be 252 ng/mL.

The next assay deals with T6, HLA-DQ2.5 on IHW09023 cells loaded with …. Briefly: cell-based or functional assay. The source holds these as a separate data set.
For B7, the “IC50, γ3 gliadin TCR, 100 µM γ3 gliadin” value was 1.55 ng/mL.

In a further assay the target is T7, HLA-DQ2.5 on IHW09023 cells loaded with …. The experiment in a line: cell-based or functional assay. This is another data set of the same source.
With B7, the “IC50, γ4a gliadin TCR, 25 µM γ4a gliadin” value turned out to be 636 ng/mL.

The next assay addresses T8, HLA-DQ2.5 on IHW09023 cells loaded with …. Briefly: cell-based or functional assay. The source holds these as a separate data set.
With B7, the “IC50, γ4d gliadin TCR” value was found to be 8.69 ng/mL.

For another assay, the target named is HLA-DQ2.2 on HBBB2.2 cells loaded with 33 mer gliadin peptide (human; wheat). Briefly: cell-based or functional assay.
As to B7, the “IC50, HLA-DQ2.2, α1a gliadin TCR, 25 µM 33mer gliadin” value came to 1.72 ng/mL and the “IC50, HLA-DQ2.2, α2 gliadin TCR, 1 µM 33mer gliadin” value came out at 9.48 ng/mL.

The values above are taken from patent publication US20220089743A1 (Chugai, published 2022).
